Experiments:
BetI2 = biological target: T1, BetI2 (Ruegeria pomeroyi, UniProt Q5LUG8); assay: microscale thermophoresis of BetI2 binding to DNA probes with or without choline; conditions: effector; DNA probes P1 (betI2 box 1) and P2 (betI2 box 2); 1x PBS pH 7.4, 0.05% Tween-20, 25 C; labelled protein
T1 construct: gene betI; full length gene in pET28a(+), C-terminal His-tag, expressed in E. coli BL21(DE3), Ni-NTA and gel filtration; RED-Tris-NTA labelled for MST
T1 sequence (Q5LUG8 1-193): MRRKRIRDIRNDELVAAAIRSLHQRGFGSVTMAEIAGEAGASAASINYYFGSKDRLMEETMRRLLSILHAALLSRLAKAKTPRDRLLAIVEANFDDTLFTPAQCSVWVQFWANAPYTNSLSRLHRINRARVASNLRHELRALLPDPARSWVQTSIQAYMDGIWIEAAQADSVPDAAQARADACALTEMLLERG

[1] = tested on: T2, BetI2 (Ruegeria pomeroyi DSS-3), ORF:6e67dd5c; assay: EMSA; conditions: EMSA: 2 mM EDTA, 20 mM KCl, 0.5 mM DTT, 4% Ficoll-400, pH 8.0, 2 ug poly(dI-dC), 20 uL, protein 0-28 uM; MST: 1x PBS pH 7.4, 0.05% Tween-20, 25 C
T2 sequence: T1 sequence (Q5LUG8 1-193)

[2] = tested on: BetI2 (Ruegeria pomeroyi DSS-3); assay: MST; conditions: EMSA: 2 mM EDTA, 20 mM KCl, 0.5 mM DTT, 4% Ficoll-400, pH 8.0, 2 ug poly(dI-dC), 20 uL, protein 0-28 uM, MST: 1x PBS pH 7.4, 0.05% Tween-20, 25 C

`C[N+](C)(C)CCO` [choline] was tested, and the “microscale thermophoresis of BetI2 binding to DNA probes with or without choline” value (BetI2) was “The affinities of BetI2 to the IGR probe variants with or without choline were determined”.
“GGCCATATTGGCCAATCGGCCAAAGGGTTCAAGTTTAAAGGATTATCGAAAAACTTGAACGACTGTTCAAGTTTTGGTTCTTTTGATCAGGTTATTGTGCTAATTTCCCGCATCATTCGACCCGGCCCGGAGGAGAGGGCGGGCGTGAACCCAGGGAGGGACCATGAT (double strand) [IGR (EMSA probe)]” was tested, and the binding [1] was “binds”.
With IGR (MST probe) the Kd ([2]; no choline stated) was 870 nM.
With P1 (IGR variant, betI2 box 1 only) the binding signal (fold affinity of P1 over P2) ([2]; choline) was 2 and the binding signal (fold Kd of P1 over P2) ([2]; no choline) was 4.
P2 (IGR variant, betI2 box 2 only) was tested, and the binding signal (affinity relative to P1 with choline) [2] was 0.5 and the binding signal ([2]; no choline, scale: reference for P1 without choline) was 1.
